According to IntAct's records for PubMed 21139564:

B1: Eukaryotic initiation factor 4F subunit p150 (Saccharomyces cerevisiae), P39935 (parent)
chain: MTDETAHPTQSASKQESAALKQTGDDQQESQQQRGYTNYNNGSNYTQKKPYNSNRPHQQRGGKFGPNRYNNRGNYNGGGSFRGGHMGANSSNVPWTGYYNNYPVYYQPQQMAAAGSAPANPIPVEEKSPVPTKIEITTKSGEHLDLKEQHKAKLQSQERSTVSPQPESKLKETSDSTSTSTPTPTPSTNDSKASSEENISEAEKTRRNFIEQVKLRKAALEKKRKEQLEGSSGNNNIPMKTTPENVEEKGSDKPEVTEKTKPAEEKSAEPEVKQETPAEEGEQGEKGQIKEESTPKVLTFAERLKLKKQQKEREEKTEGKENKEVPVQEETKSAIESAPVPPSEQVKEETEVAETEQSNIDESATTPAIPTKSDEAEAEVEAEAGDAGTKIGLEAEIETTTDETDDGTNTVSHILNVLKDATPIEDVFSFNYPEGIEGPDIKYKKEHVKYTYGPTFLLQFKDKLNVKADAEWVQSTASKIVIPPGMGRGNRSRDSGRFGNNSSRGHDFRNTSVRNMDDRANSRTSSKRRSKRMNDDRRSNRSYTSRRDRERGSYRNEEKREDDKPKEEVAPLVPSANRWVPKFKSKKTEKKLAPDGKTELLDKDEVERKMKSLLNKLTLEMFDAISSEILAIANISVWETNGETLKAVIEQIFLKACDEPHWSSMYAQLCGKVVKELNPDITDETNEGKTGPKLVLHYLVARCHAEFDKGWTDKLPTNEDGTPLEPEMMSEEYYAAASAKRRGLGLVRFIGFLYRLNLLTGKMMFECFRRLMKDLTDSPSEETLESVVELLNTVGEQFETDSFRTGQATLEGSQLLDSLFGILDNIIQTAKISSRIKFKLIDIKELRHDKNWNSDKKDNGPKTIQQIHEEEERQRQLKNNSRSNSRRTNNSSNRHSFRRDAPPASKDSFITTRTYSQRNSQRAPPPKEEPAAPTSTATNMFSALMGESDDEE
partner: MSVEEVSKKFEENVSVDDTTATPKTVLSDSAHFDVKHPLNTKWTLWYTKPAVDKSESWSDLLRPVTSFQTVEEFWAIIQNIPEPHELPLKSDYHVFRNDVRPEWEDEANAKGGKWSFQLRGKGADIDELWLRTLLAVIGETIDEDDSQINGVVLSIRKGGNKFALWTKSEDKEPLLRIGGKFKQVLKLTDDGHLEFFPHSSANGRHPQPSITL

Variants of: B1
Conditions: with if4e_yeast CDC33, P07260

| Variant | effect of a mutation on the interaction |
| --- | --- |
| V213A;K214A;L215A;R216A;L457A;L458A | decreasing interaction strength |
| L457A;L458A | decreasing interaction |
